According to patent publication US20250043022A1 (JIANGSU HENGRUI PHARMACEUTICALS, published 2025):
Where a chain is given by its changes, count along the chain named. Blank lines part the entries; values can stand above or below the binder they belong to.

Assays:
[1] = target: T1, human PSMA on cells (Cho-hPSMA, CHO-K1 cells overexpressing full-length human PSMA) (human, UniProt Q04609 1-750); test: cell ELISA, Cho-hPSMA; antibody at 1.5625 nM
T1 construct: whole, on cells; also called cell surface PSMA; PSMA-expressing Lncap cells
Description: (§1) Experiment 2: Cells were cultured and inoculated onto a cell plate using the same method as in Experiment 1. The antibodies were serially diluted, and the antibody solutions were added to the cell plate at 100 μL/well. The plate was incubated at 4° C. for 1 h and then washed. An HRP-Goat Anti-human IgG (H+L) secondary antibody dilution (1:8000) was added to the cell plate at 100 μL/well, and the plate was incubated at 4° C. for 1 h and then washed by centrifugation. After color development with TMB, the reaction was stopped with 0.1 M sulfuric acid, and OD450 values were measured.
(§2) Experiment 4: The binding activity of bispecific antibodies was measured using the method of experiment 2.

[2] = target: T1, human PSMA on cells (Cho-hPSMA, CHO-K1 …); test: cell ELISA, Cho-hPSMA; antibody at 6.25 nM
Description: as §1, §2

[3] = target: T1, human PSMA on cells (Cho-hPSMA, CHO-K1 …); test: cell-based or functional assay
[4] = target: T1, human PSMA on cells (Cho-hPSMA, CHO-K1 …); test: cell ELISA, Cho-hPSMA; antibody at 25 nM
Description: as §1, §2

[5] = target: T1, human PSMA on cells (Cho-hPSMA, CHO-K1 …); test: flow cytometry, Cho-hPSMA; antibody at 20 nM
Description: (§3) Experiment 1: Cho-hPSMA was cultured in F12 medium with 10% FBS. The medium to which cells were inoculated was incubated in a 37° C., 5% CO₂ incubator for 2 days, and cells were added to a cell plate at 1×10⁵ cells/well and washed by centrifugation. Antibodies were serially diluted, and the antibody solutions were added to the cell plate at 100 μL/well. The plate was incubated at 4° C. for 1 h and then washed. An AF488-Goat Anti-human IgG Fc fluorescent secondary antibody dilution (1:400) was added to the cell plate at 100 μL/well, and the plate was incubated at 4° C. for 1 h and then washed. PBS was added to the cell plate at 100 μL/well before plate reading.
(§4) Experiment 3: The binding activity of bispecific antibodies was measured using the method of experiment 1.

[6] = target: T1, human PSMA on cells (Cho-hPSMA, CHO-K1 …); test: flow cytometry, Cho-hPSMA; antibody at 4 nM
Description: as §3, §4

[7] = target: T1, human PSMA on cells (Cho-hPSMA, CHO-K1 …); test: flow cytometry, Cho-hPSMA; antibody at 0.8 nM
Description: as §3, §4

[8] = target: T1, human PSMA on cells (Cho-hPSMA, CHO-K1 …); test: flow cytometry, Cho-hPSMA; antibody at 100 nM
Description: as §3, §4

[9] = target: T1, human PSMA on cells (Cho-hPSMA, CHO-K1 …); test: flow cytometry, Cho-hPSMA; antibody at 100 µg/mL
[10] = target: T1, human PSMA on cells (Cho-hPSMA, CHO-K1 …); test: flow cytometry, Cho-hPSMA; antibody at 20 µg/mL
[11] = target: T1, human PSMA on cells (Cho-hPSMA, CHO-K1 …); test: flow cytometry, Cho-hPSMA; antibody at 4 µg/mL
[12] = target: T2, human PSMA antigen (Acro, Cat. No. PSA-H52H3; Lys44-Ala750) (human, UniProt Q04609 44-750); test: SPR (Biacore T200, 25 C), antibody captured on Protein A, 1:1 model
T2 construct: range 44-750
Description: Experiment 5: Antibodies were affinity-captured using a Protein A biosensor chip, and human PSMA was then allowed to flow over the chip surface. The association and dissociation curves were obtained by real-time detection of reaction signals using a Biacore T200 instrument at 25° C. After the dissociation in each experimental cycle was complete, the biosensor chip was regenerated by washing with Glycine 1.5. Data fitting was performed using a 1:1 Model. The human PSMA antigen was purchased from Acro (Cat. No. PSA-H52H3; Lys44-Ala750), and the hCD3D&CD3E complex antigen was purchased from Sino Biological (Cat. No. CT038-H2508H).

[13] = target: T1, human PSMA on cells (Cho-hPSMA, CHO-K1 …); test: flow cytometry, Cho-hPSMA; antibody at 0.8 µg/mL
[14] = target: T1, human PSMA on cells (Cho-hPSMA, CHO-K1 …); test: hybridoma screening on cells

T1 sequence (Q04609 whole entry): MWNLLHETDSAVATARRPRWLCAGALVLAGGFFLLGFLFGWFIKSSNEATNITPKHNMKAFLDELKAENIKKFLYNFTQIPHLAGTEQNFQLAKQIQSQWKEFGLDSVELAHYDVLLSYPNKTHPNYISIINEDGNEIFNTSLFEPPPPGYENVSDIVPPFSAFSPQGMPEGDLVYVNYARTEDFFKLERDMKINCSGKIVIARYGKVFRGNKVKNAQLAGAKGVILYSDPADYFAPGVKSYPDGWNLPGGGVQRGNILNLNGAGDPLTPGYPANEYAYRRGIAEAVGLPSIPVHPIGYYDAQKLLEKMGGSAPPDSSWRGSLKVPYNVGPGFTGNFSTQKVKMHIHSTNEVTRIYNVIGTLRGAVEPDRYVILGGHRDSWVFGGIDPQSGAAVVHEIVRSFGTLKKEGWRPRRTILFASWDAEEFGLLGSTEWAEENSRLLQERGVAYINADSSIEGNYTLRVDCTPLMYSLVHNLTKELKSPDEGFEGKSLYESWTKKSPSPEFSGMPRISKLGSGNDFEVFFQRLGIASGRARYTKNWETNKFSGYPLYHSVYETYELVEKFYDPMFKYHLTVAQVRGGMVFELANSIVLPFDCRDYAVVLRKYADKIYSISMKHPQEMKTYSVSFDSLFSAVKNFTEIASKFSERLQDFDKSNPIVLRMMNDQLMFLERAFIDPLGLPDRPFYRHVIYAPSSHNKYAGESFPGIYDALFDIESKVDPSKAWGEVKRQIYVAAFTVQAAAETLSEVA
T2 sequence (Q04609 44-750 limits assumed): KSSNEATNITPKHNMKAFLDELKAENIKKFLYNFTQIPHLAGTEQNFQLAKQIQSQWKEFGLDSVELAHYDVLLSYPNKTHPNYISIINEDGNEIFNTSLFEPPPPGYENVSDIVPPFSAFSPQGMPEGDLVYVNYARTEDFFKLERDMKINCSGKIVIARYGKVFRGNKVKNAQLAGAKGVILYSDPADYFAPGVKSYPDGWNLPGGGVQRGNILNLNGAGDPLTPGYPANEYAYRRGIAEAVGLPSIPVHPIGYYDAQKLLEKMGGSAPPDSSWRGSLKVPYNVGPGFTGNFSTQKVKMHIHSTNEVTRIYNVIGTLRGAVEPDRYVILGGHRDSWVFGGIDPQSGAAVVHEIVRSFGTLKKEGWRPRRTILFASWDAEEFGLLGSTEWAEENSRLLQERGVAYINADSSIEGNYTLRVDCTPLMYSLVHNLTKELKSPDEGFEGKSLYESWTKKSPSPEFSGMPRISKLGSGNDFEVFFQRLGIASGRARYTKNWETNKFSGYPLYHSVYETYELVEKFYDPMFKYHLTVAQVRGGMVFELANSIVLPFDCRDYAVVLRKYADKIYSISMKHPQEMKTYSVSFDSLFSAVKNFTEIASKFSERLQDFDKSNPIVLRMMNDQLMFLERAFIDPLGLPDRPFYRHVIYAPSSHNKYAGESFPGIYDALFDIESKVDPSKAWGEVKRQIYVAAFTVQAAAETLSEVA

B1: 43-F4 (bispecific antibody)
heavy: not shown
light: DIQMTQSPSSLSASVGDRVTITCKASQNVHTSVAWYQQKPGKSPKLLIYSASNRYSGVPSRFSGSGSGTDFTLTISSLQPEDVATYYCQQYSSYPLTFGQGTKLEIKRTVAAPSVFIFPPSDEQLKSGTASVVCLLNNFYPREAKVQWKVDNALQSGNSQESVTEQDSKDSTYSLSSTLTLSKADYEKHKVYACEVTHQGLSSPVTKSFNRGEC
notes: PSMA x CD3, Format 4
- absorbance [1]: 0.254 OD450
- absorbance [2]: 0.527 OD450
- cytotoxic activity against Lncap, EC50 [3]: 6.21 pM
- cytotoxic activity against Lncap, Maximum lysis rate % [3]: 48%
- absorbance [4]: 1.04 OD450

B3: 15-F2 (bispecific antibody)
heavy 1: not shown
light 1: B1 light with N28G, H30D, S32A, S50W, N53T, Y55H, S56T, S60D, S93R
heavy 2: not shown
light 2: not shown
notes: PSMA x CD3, Format 2
- fluorescence intensity [5]: 30700
- fluorescence intensity [6]: 27800
- fluorescence intensity [7]: 15000
- fluorescence intensity [8]: 26900

B5: 27-F4 (bispecific antibody)
heavy: not shown
light: QIVLTQSPDFQSVTPKEKVTIQCSASSSVSYMYWYQQKPDQSPKPWIYRTSNLASGVPSRFSGSGSGTDYTLTINSLEAEDAATYYCQQYHSYPLTFGQGTKLEIKRTVAAPSVFIFPPSDEQLKSGTASVVCLLNNFYPREAKVQWKVDNALQSGNSQESVTEQDSKDSTYSLSSTLTLSKADYEKHKVYACEVTHQGLSSPVTKSFNRGEC
notes: PSMA x CD3, Format 4
- absorbance [1]: 0.419 OD450
- absorbance [2]: 0.732 OD450
- absorbance [4]: 1.05 OD450

B7: murine antibody 50 (antibody, V domains shown)
VH: QVQLQQSGAELARPGASVKLSCKASGFTFTNYGISWVKQRTGQGLEWIGEIYPRSGNTYYNTNFKGEATLTADKSSSTAFMELRSLTSEDSAVYFCARNPFTTVVEGFAFWGQGTLVTVSA
VL: DVFMTQSPLSLPVSLGDQASISCRSSQSILHSNGNTYLEWYLQKPGQSPKLLIYRVSNRFSGVPDRFSGSGSGTDFTLKISRVEAEDLGVYYCFQGLHVPPTFGAGTKLELK
notes: murine hybridoma antibody
- binding result [14]: binds

B11: murine antibody 71 (antibody, V domains shown)
VH: QVQLVETGGGLVRPGNSLKLSCVTSGFTFSNYRMHWLRQPPGKRLEWIAVITVKSDNYGSSYAESVKGRFAISRDDSKSSVYLEMNRLREEDTATYFCSRELGQVLVFWGQGTLVTVSA
VL: DVVVTQTPLSLPVSLGDQASISCRSSQSLVHSYGNTYLHWYLQKPGQSPKLLIYKVSNRFSGVPDRFSGSGSGTDFTLKISRVEAEDLGVYFCSQTTHVPWTFGGGTKLEIK
notes: murine hybridoma antibody
- binding result [14]: binds

B12: murine antibody 46 (antibody, V domains shown)
VH: EVQLVESGGDLVKPGGSLKLSCAASGFTFSNYGMSWVRQTPDKRIKWVATIGSGGGYTYYSDSVKGRFTISRDNAKNTLYLQMSSLKSEDTAIYYCVRHPQIGYWGQGTLVTVSA
VL: DIVMTQSQKFMSTTVGDRVTITCKASQSVGTAVAWYQQKPGQSPKLLIYSASSRYTGVPDRFTGSGSGTDFTLTITNMQSEDLADYFCHQYSSYPLTFGGGTKLEIK
notes: murine hybridoma antibody
- binding result [14]: binds

Continued, in another order:

- absorbance [1]: 0.227 OD450
- absorbance [2]: 0.441 OD450
- absorbance [4]: 0.721 OD450
B2: 43-F3 (bispecific antibody)
heavy: not shown
light 1: B1 light
light 2: not shown
notes: PSMA x CD3, Format 3
- cytotoxic activity against Lncap, EC50 [3]: 7.39 pM
- cytotoxic activity against Lncap, Maximum lysis rate % [3]: 49.5%

- fluorescence intensity [5]: 31400
- fluorescence intensity [6]: 22000
- fluorescence intensity [7]: 8280
- fluorescence intensity [8]: 32200
B4: 15-F4 (bispecific antibody)
heavy: not shown
light: B1 light with N28G, H30D, S32A, S50W, N53T, Y55H, S56T, S60D, S93R
notes: PSMA x CD3, Format 4
- cytotoxic activity against Lncap, EC50 [3]: 9.63 pM
- cytotoxic activity against Lncap, Maximum lysis rate % [3]: 63.2%

- fluorescence intensity [9]: 16500
- fluorescence intensity [10]: 16200
- fluorescence intensity [11]: 7970
- Kd [12]: 1860 pM
- koff [12]: 1.84e-05 s⁻¹
- kon [12]: 9890 M⁻¹ s⁻¹
- fluorescence intensity [13]: 2520
B6: 31-F1 (bispecific antibody)
heavy 1: not shown
light 1: DIQMTQSPSSLSASVGDRVTITCRASGNIHNYLAWYQQKPGKAPKLLIYNAETLADGVPSRFSGSGSGTDFTLTISSLQPEDFATYYCQHFWSTPPTFGGGTKVEIKRTVAAPSVFIFPPSDEQLKSGTASVVCLLNNFYPREAKVQWKVDNALQSGNSQESVTEQDSKDSTYSLSSTLTLSKADYEKHKVYACEVTHQGLSSPVTKSFNRGEC
heavy 2: not shown
light 2: not shown
notes: PSMA x CD3, Format 1

- fluorescence intensity [5]: 20800
- fluorescence intensity [6]: 18700
- fluorescence intensity [7]: 9490
- fluorescence intensity [8]: 21300
B8: 46-F4 (bispecific antibody)
heavy: not shown
light: DIQMTQSPSSLSASVGDRVTITCKASQSVGTAVAWYQQKPGKAPKLLIYSASSRYTGVPSRFSGSGSGTDFTLTISSLQPEDFADYFCHQYSSYPLTFGGGTKVEIKRTVAAPSVFIFPPSDEQLKSGTASVVCLLNNFYPREAKVQWKVDNALQSGNSQESVTEQDSKDSTYSLSSTLTLSKADYEKHKVYACEVTHQGLSSPVTKSFNRGEC
notes: PSMA x CD3, Format 4
- cytotoxic activity against Lncap, EC50 [3]: 2.85 pM
- cytotoxic activity against Lncap, Maximum lysis rate % [3]: 63.5%

- fluorescence intensity [5]: 23100
- fluorescence intensity [6]: 19400
- fluorescence intensity [7]: 8330
- fluorescence intensity [8]: 23000
B9: 46-F2 (bispecific antibody)
heavy 1: not shown
light 1: B8 light
heavy 2: not shown
light 2: not shown
notes: PSMA x CD3, Format 2

- fluorescence intensity [5]: 28600
- fluorescence intensity [6]: 12300
- fluorescence intensity [7]: 3930
- fluorescence intensity [8]: 31600
B10: 46-F1 (bispecific antibody)
heavy 1: not shown
light 1: B8 light
heavy 2: not shown
light 2: not shown
notes: PSMA x CD3, Format 1
